# The nanobody polyreactivity screen of Harvey et al. (2022)
# Assay: yeast display, Sf9 membrane polyspecificity reagent, FACS + sequencing; frameworks hold sequencing errors
# Method in brief: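 Galactose induction of a Saccharomyces cerevisiae BJ5465 synthetic nanobody display library ran 36–48 hours. The cells were then stained for 1 hour at 4 °C with 10% biotinylated, detergent-solubilized Sf9 membrane reagent, pulled down on streptavidin microbeads and FACS-sorted into low and high (top ~1%) gates on expression and reagent-binding fluorescence. Labels for polyreactivity follow the gate of origin.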
row,Sequence,polyreactivity (PSR sort gate)
1,QVQLVESGGGLVQAGGSLRLSCAASGRTFNFNTMGWYRQAPGKEREFVAAITFRGVRTYYADSVKGRFTISRDNAKNTVYLQMNSLKPEDTAVYYCAADAPRSYRFGYWGQGTQVTVSS,high polyreactivity
2,QVQLVESGGGLVQAGGSLRLSCAASGRTFNGYALGSSRQAPGKERELVAAISGRGRSTRYADSVKGRFTISRDNAKNTVYLQMNSLNPEDTAVYYCNARGYSETQREYDSWGQGTQVTVSS,high polyreactivity
3,QVQLVESGGGLVQAGGSLRLSCAASGRTFNKYAMGWYRQAPGKERELVAAIRDGSGGRTNYADSVKGRFTISRDNAKNTVYLQMNSLKPEDTAVYYCNADDSKYPYYTDDYWGQGTQVTVSS,low polyreactivity
4,QVQLVESGGGLVQAGGSLRLSCAASGRTFNPNAMGWYRQAPGKERELVAAISSSGGSTYYADSVKGRFTISRDNAKNTVYLQMNSLKPEDTAVYYCAAVHKWYLYYYWGQGTQVTVSS,high polyreactivity
5,QVQLVESGGGLVQAGGSLRLSCAASGRTFNPYTMGWYRQAPGKEREFVATIRKSSGGTYYADSVKGRFTISRDTAKNTVYLQMNSLKPEDTAVYYCAAVGNGGMDYWGQGTQVTVSS,low polyreactivity
6,QVQLVESGGGLVQAGGSLRLSCAASGRTFNQYAMGWYRQAPGKERELVAAISRRTGRTYYADSVKGRFTISRDNAKNTVYLQMNSLKQEDTAVYYCAAGFTYLNYTPWYRFNYWGQGTQVTVSS,high polyreactivity
7,QVQLVESGGGLVQAGGSLRLSCAASGRTFNRNAMGWYRPAPGKERELVAAISRGGGGTFYADSVKGRFTISRDNAKNTVYLQMNSLKPEDTAVYYCAVWQDHYDWGQGTQVTVSS,low polyreactivity
8,QVQLVESGGGLVQAGGSLRLSCAASGRTFNRNAMGWYRQAPGKERELVASITSRGGSTYYADSVKGRFTISRDNAKNTVYLQMNSLKPEDTAVYYCNATPKFFGRYWGYDYWGQGTQVTVSS,high polyreactivity
9,QVQLVESGGGLVQAGGSLRLSCAASGRTFNRYAMGWYRQAPGKERELVAAISWRGDSTYYADSVKGRFTISRDNAKNTVYLQMNSLKPEDTAVYYCAARGNFWGQGTQVTVSS,high polyreactivity
10,QVQLVESGGGLVQAGGSLRLSCAASGRTFNRYAMGWYRQAPGKERELVAAISWSGGRTYYADSVKGRFTISRDNAKNTVYLQMNSMIPEATAVYYCAKEAYFRYDYCGQGTQVTVSS,low polyreactivity
11,QVQLVESGGGLVQAGGSLRLSCAASGRTFNSNAMGCYRQAPGKERELVARISRGASTYYADSVKGRFTISRDNAKNTVYLQMNSLKPEDTAVYYCAKRRRSAAPKYDYWGQGTQVTVSS,high polyreactivity
12,QVQLVESGGGLVQAGGSLRLSCAASGRTFNSYAMGWYRQAPGKEREFVASITFSTGRTYYADSVKGRFTISRDNAKNTVYLQMNSLKPEDTAVYYCNVRFVTGYRYRYGDDYWGQGTQVTVSS,low polyreactivity
13,QVQLVESGGGLVQAGGSLRLSCAASGRTFNSYPMGWYRQAPGTERELVAAINYRGTSTYYSDSVKGRFTISRDNAMNTVYLQMNSLKPEDTAVYYCNARQTRSSRINYPEGIYNYWGQGTQVNVSS,high polyreactivity
14,QVQLVESGGGLVQAGGSLRLSCAASGRTFNTYAMGWYRQAPGKERELVAAISSGGRTYYADSVKGRFTISRDNAKNTVYLQMNSLKPEDTAVYYCAAKPFQYRTVYEYWGQGTQVTVSS,high polyreactivity
15,QVQLVESGGGLVQAGGSLRLSCAASGRTFNVNAMGWYRQAPGKERELVAAISSSGTTNYADSVKGRFTISRDNAKNTVYLQMNSLKPEDTAVYYCNKRWRDKYPQYDYWGQGTQVTVSS,low polyreactivity
16,QVQLVESGGGLVQAGGSLRLSCAASGRTFNWYAMGWYRQAPGKERELVAAISYSGGGTYYADSVKGRFTISRDNAKNTVYLQMNSLKPEDTAVYYCAAETYYAPYVYWGQGTQVTVSS,high polyreactivity
17,QVQLVESGGGLVQAGGSLRLSCAASGRTFNWYAMGWYRQAPGKERELVAAISYSGGGTYYADSVKGRFTISRDTAKNTVYLQMNSLKPEDTAVYYCAAETYYAPYDYWGQGTQVTVSS,high polyreactivity
18,QVQLVESGGGLVQAGGSLRLSCAASGRTFNWYAMGWYRQAPGKESELVAAISSRGGSTYADSVKGRFTISRDNAKNTVYLQMNSLTPEDTAVYYCNADLLPADAPLWVTGGDYWGQGTQVTVSW,low polyreactivity
19,QVQLVESGGGLVQAGGSLRLSCAASGRTFNYYAMGWYRQAPGKEREFVAANSWSVGSTYYADSVKGRFTISRDNAKNTVYLQMNSLKPEDTAVYYCATEVPVGVQRHIFNYYYWGQGTPVTVSS,low polyreactivity
20,QVQLVESGGGLVQAGGSLRLSCAASGRTFNYYAMGWYRQAPGKERELVAAISSSGGRTYYADSVKGRFTISRDNAKNTVYLQMNSLKPEDTAVYYCAADSFYYRPEYDYWGQGTQVTVSS,low polyreactivity
21,QVQLVESGGGLVQAGGSLRLSCAASGRTFNYYAMGWYRQAPGKERELVATITFSGDGSTYYAHSVKGRFTISRDNAKNTVYLHMNSLKPEDTAVYYCTADIEKSYNYWGQGTQVTVSS,low polyreactivity

row,Sequence,polyreactivity (PSR sort gate)
1,QVQLVESGGGLVQAGGSLRLSCAASGRTFPAYTMGWYRQAPGKERELVAAINWSGGSTYYADSVKGRFTISRDNAKNTVYLQMNSLKPEDTAVYYCARTSHYYGFRSYGTLDYWGQGTQVTVSS,high polyreactivity
2,QVQLVESGGGLVQAGGSLRLSCAASGRTFPFYAMGWYRQAPGKERELVAAISISGGSTYYADSVKGRFTISRDNAKNTVYLLMNSLKPEDTAVYYCATDGLYLSWQYSWEELYYWGQGTQVTVSS,high polyreactivity
3,QVQLVESGGGLVQAGGSLRLSCAASGRTFPFYAMGWYRQAPGKERELVADITSSGGSTYYADSVKGRFTISRDNAKNTVYLQMNSLKPEDTAVYFCNSFRGAQGSDAYDWGQGTQVTVSS,low polyreactivity
4,QVQLVESGGGLVQAGGSLRLSCAASGRTFPGNAMGWYRQAPGKERELVAAISWSGTRTYYADSVKGRFTISRDNAKNTVYLQMNSLKPEDTAVYYCNRRYWSFFPYDYWGQGTQVTVSS,high polyreactivity
5,QVQLVESGGGLVQAGGSLRLSCAASGRTFPGNDMGWYRQAPGKERELVAAISSDDSTYYADSVKGRFTISRDNAKNTVYLQMNSLKPEDTAVYYCNAEYYEGYIGVPGSYWPYEYWGQGTQVTVSS,low polyreactivity
6,QVQLVESGGGLVQAGGSLRLSCAASGRTFPGYAMGWYRQAPGKERELVAAISWSGTSTYYADSVKGRFTISRDNAKNTVYLQMNSLKPEDTAVYYCNKVYTYSAPYYYWGQGTQVTVSS,high polyreactivity
7,QVQLVESGGGLVQAGGSLRLSCAASGRTFPGYAMGWYRQAPGKERELVATITGNGGSTYYADSVKGRFTISRDNAKNTVYLQMNSLKPDDTAVYYCAAGRRRPYVRAYSGTDYWGQGTQVTVSS,low polyreactivity
8,QVQLVESGGGLVQAGGSLRLSCAASGRTFPGYAMGWYRQAPGKEREVVAGISYRGGSTYYADSVKGRFTISRDNPKNTVYLQMNSLKPVDTAVYYCARDYSRHKGDYWGQGTQVTVSS,low polyreactivity
9,QVQLVESGGGLVQAGGSLRLSCAASGRTFPLNAMGWYRQAPGKERELVARISSNGGSTYYADSMKGRFTISRDNAKNTVYLQMNSLKPEDTAVYYCAARYYSRRGLYYWGQGTQVTVSS,high polyreactivity
10,QVQLVESGGGLVQAGGSLRLSCAASGRTFPPYAMGWYRQGPGKERELVASIRRGGSTHYADSVKRRFTISRDNAKNTVYLQMNSLQPEDTAVYYCAAYYGGWSTYGAGYGGFYYWGQGTQVTVSS,high polyreactivity
11,QVQLVESGGGLVQAGGSLRLSCAASGRTFPRNGMGWYRQAPGKERELVAAISWSGGRTYYADSVKGRFTISRDNAKNTVYLQMNSLKPEDTAVYYCNALYFRKGGYWGQGTQVTVSS,high polyreactivity
12,QVQLVESGGGLVQAGGSLRLSCAASGRTFPSNVMGWYRQAPGKEREFVAAITTRGGNTRYADSVKGRFTISRDNAKNTVYLQMNSLKPEDTAVFYCAAKVKPGYDYWGQGTQVTVSS,low polyreactivity
13,QVQLVESGGGLVQAGGSLRLSCAASGRTFPVYAMGWYRQAPGKEREFVAAISRRGGSTYYADSVKGRFTISRDNAKNTVYLQMNSLKPQDTAVYYCAKVYYLYGAQHNPGRYDYWGQGTQLTVSS,high polyreactivity
14,QVQLVESGGGLVQAGGSLRLSCAASGRTFPVYAMGWYRQAPGKERELVAAIRFSGGSTYYADSVKGRFTISRDNAKNTVYLQMNSLKPEDTAVYYCAADDWSWSTAWVPWYNYDYWGQGTQVTVSS,low polyreactivity
15,QVQLVESGGGLVQAGGSLRLSCAASGRTFPYNAMGWYRQAPGKERELVAAISGRGGSTYYADSVKGRFTISRDNAKNTVYLQMNSLKPEDTAVYYCAARLPWSYYRTQGYNYWGQGTQVTVSS,high polyreactivity
16,QVQLVESGGGLVQAGGSLRLSCAASGRTFPYNAMGWYRQAPGKERELVAAISSGGSTNYADSVKGRFTISRDNAKNTVYLQMNSLKPEDTAVYYCAVTGWPRYTWYSYGYWGQGTQVTVSS,low polyreactivity
17,QVQLVESGGGLVQAGGSLRLSCAASGRTFPYNAMGWYRTAPGKERELVAAISSGGSTNYADSVKGRFTISRDNAKNTVYLQMNSLKPEDTAVYYCAVTGWPRYTWYSYGYWGQGTQVTVSS,low polyreactivity
18,QVQLVESGGGLVQAGGSLRLSCAASGRTFPYNDMGWYRQAPGKERQLVAGISLSGGSTFYADSVKGRFTISRDNAKKTVYLQRNSLKAEDTAVYYCNAPGGRYVWTDDYDYWGQGTQVTVSS,high polyreactivity
19,QVQLVESGGGLVQAGGSLRLSCAASGRTFPYYAMGWSRQAPGKERELVAAITRGGNTNYADSVKGRFTISRDNAKNTVYLQMNSLKPEDTAVYYCAALVRAGPRRGTIYDYWGQGTQVTVSS,high polyreactivity
20,QVQLVESGGGLVQAGGSLRLSCAASGRTFPYYAMGWYRQAPGKERELVAAISSSGGSTYYADSVKARFTISGDNAKNTVYLQMNSLKPEDTAVYDCTRYSRLYLTDDDYWGQGTQVTVSS,high polyreactivity
